This note sets out measurements from patent US12404312B2, “Engineered VEGF variants for retinal neuroprotection, promotion of axon growth and axon regeneration” (Massachusetts Eye and Ear Infirmary, priority 2018, dated 2025).

For series [1], the system named is human microvascular endothelial cells (hREC). The experiment in a line: Pro-inflammatory markers (VCAM-1, E-selectin, tissue factor) in hREC by immunostaining or qPCR. The class given is cell-based. The following applies: compared with GFP/AAV2 control, p<0.05. The protocol:
(§1) eVEGF-38 and eVEGF-53 localize to the cell membrane and comprise myc-tags. VEGF189 was constructed with a myc-tag. The constructs were packaged into adeno-associated virus serotype 2 (AAV2) for efficient transduction and expression in human microvascular endothelial cells (hREC) and RGC. Transgenes expression was measured by western blot, qPCR and immunostaining. In hREC, VEGFR2, VCAM-1, E-selectin and tissue factor expression were measured by immunostaining or qPCR. VEGFR2 signaling, axon length, and synapse formation in RGC were measured by immunostaining. RGC survival was measured by TUNEL staining and intracellular [Ca2+] was measured using fura2/AM calcium imaging.
(In general: Real-time PCR tracks product formation cycle by cycle.)

The test system of series [2] is primary mouse RGC. Briefly: H2O2-induced cell death of primary mouse RGC (TUNEL staining). The following applies: P<0.05. It is filed as cell-based. The protocol: as §1, with “Cell death was analyzed by TUNEL staining” for “eVEGF-38”, “transgene expression by immunostaining. Percentage of viable RGC was determined by: (TUNEL-negative RGC with transgenes expression)/(total” for “eVEGF-53 localize to the”, “number by DAPI staining). […]” for “membrane and comprise myc-tags. VEGF189 was constructed with a myc-tag.”

The test system of series [3] is primary mouse RGC. Briefly: Axon and neurite formation in primary mouse RGC. The class given is cell-based. The following applies: for average axon length per RGC / average number of neurites per RGC / percentage of RGC with axons longer than 3× cell body length / average number of branch points of neurite per RGC: primary RGC; for average axon length per RGC / average number of neurites per RGC / percentage of RGC with axons longer than 3× cell body length: compared to the GFP control; for average number of branch points of neurite per RGC: compared to control.
Excerpt: FIG. 6 is a series of photomicrographs showing correlative fluorescence and electron microscopy showing extra long axons (>1400 μm) from some of the eVEGF-38 overexpressing primary RGC. Green arrows, eVEGF-38 overexpressing cells; blue arrows, untransduced primary mouse RGC.
FIGS. 7A and 7B are a series of bar graphs and dot plots showing that VEGFR2 signaling is required for the formation of long axons by primary RGC overexpressing eVEGF-38, eVEGF-53, and VEGF189. […] Recombinant VEGF121 protein was added to a final concentration of 2.5 nM. […] Labels: 38, eVEGF-38; 53, eVEGF-53; 189, VEGF189; UT, untreated. Data=mean±SD, n=15 fields from 3 independent wells per group, *P<0.05, **P<0.01, ***P<0.001, one-way ANOVA.
as §1

Series [4] relates to primary mouse RGC. The experiment in a line: Survival of primary mouse RGC in culture. It is filed as cell-based. The following applies: control 22% survival, P<0.001. The protocol:
FIG. 3A is a bar graph showing the results from experiments using primary mouse RGC isolated from P3 pups were transduced with different AAVs to overexpress eVEGF-38, eVEGF-53, VEGF189, or the control GFP on the day of isolation (day 0), or treated with exogenous recombinant VEGF121 protein on day 2. The number viable RGC was determined by immunostaining for beta III tubulin while total cell number per field was determined by DAPI staining on day 3 of culture.
FIG. 3B is a bar graph showing that the majority of the viable RGC were expressing the eVEGF-38, eVEGF-53, or VEGF189, whereas the GFP-expressing RGC were not protected in culture. Data=mean±SD, ***P<0.001 by unpaired t-test, n=15 different fields total (5 fields/well) from three independent wells of primary RGC.
as §1

The target of the next series is T1, VEGFR2 (Homo sapiens, UniProt P35968).
T1 construct: Human retinal endothelial cells (hREC) that express VEGFR2; endogenous in cells; host or cells: human retinal endothelial cells (hREC)
T1 sequence (P35968 20-1356): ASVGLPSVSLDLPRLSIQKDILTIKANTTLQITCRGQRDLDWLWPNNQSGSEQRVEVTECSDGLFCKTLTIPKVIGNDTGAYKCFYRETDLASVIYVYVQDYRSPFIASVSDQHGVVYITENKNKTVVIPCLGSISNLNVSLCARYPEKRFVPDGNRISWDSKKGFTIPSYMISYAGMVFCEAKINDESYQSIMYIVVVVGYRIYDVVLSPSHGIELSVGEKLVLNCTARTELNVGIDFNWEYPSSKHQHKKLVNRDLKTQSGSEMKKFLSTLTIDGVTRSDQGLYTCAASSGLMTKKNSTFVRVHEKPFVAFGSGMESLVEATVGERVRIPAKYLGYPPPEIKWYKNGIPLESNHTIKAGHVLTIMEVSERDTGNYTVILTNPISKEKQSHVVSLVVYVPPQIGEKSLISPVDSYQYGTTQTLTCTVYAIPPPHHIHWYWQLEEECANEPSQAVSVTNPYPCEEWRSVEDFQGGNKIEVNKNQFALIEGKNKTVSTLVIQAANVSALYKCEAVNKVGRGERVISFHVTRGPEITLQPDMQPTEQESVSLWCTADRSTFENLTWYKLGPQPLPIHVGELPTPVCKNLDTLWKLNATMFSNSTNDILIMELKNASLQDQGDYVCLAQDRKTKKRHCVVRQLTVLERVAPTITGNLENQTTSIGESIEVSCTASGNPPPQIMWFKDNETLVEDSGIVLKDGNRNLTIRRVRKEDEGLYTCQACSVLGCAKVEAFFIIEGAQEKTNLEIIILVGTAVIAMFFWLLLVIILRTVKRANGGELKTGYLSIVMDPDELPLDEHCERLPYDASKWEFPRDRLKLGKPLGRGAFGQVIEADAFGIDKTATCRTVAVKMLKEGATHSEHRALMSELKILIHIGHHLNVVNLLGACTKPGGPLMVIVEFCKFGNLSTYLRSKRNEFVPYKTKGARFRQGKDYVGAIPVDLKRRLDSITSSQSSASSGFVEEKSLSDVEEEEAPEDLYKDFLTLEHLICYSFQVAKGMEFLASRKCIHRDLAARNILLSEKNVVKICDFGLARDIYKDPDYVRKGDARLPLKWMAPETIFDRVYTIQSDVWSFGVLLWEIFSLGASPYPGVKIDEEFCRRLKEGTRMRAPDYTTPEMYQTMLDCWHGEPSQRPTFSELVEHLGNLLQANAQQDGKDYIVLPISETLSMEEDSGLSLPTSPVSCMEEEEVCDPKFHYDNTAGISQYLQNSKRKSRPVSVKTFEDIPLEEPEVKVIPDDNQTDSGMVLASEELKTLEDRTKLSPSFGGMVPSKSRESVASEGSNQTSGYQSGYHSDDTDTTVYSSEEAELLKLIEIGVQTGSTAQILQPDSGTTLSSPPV
The experiment in a line: VEGFR2 activation (p-VEGFR2 western blot) in transfected hREC. It is filed as cell-based. The following applies: hREC transfected with expression construct; lysate at 24 and 48 hours post transfection; vs GFP control. The protocol: Human retinal endothelial cells (hREC) that express VEGFR2 were transfected with eVEGF-38 or eVEGF-53, or VEGF189, or control GFP (ctr) expression construct and total cell lysate was collected at 24 and 48 hours post transfection. Activation of VEGFR2 was determined by the levels of VEGFR2 phosphorylation (p-VEGFR2). Data=mean±SD, **P<0.01 by unpaired t-test, n=3 independent western blot assays.
as §1
A general note: In western blotting, separated proteins are transferred to a membrane and probed.

The test system of another series is primary RGC. Briefly: Synapse formation / synaptophysin expression in primary RGC. The class given is cell-based, mouse. Conditions: for synaptic vesicle marker synaptophysin in axons and neurites: primary RGC overexpressing the transgene. The protocol: as §1
For series [5], the system named is primary mouse RGC. Briefly: Gene expression analysis of primary mouse RGC. It is filed as cell-based. Conditions: overexpressing primary mouse RGC; vs GFP control. An excerpt:
FIG. 9 is a series of bar graphs showing that overexpression of eVEGF-38 in primary RGC suppresses genes that are associated with cell death and suppression of axon formation, but induces genes that are associated with axon growth and neuronal function. Label: 38, eVEGF-38; Ctr, GFP control. Data=mean±SD, n=3 independent wells of primary RGC, *P<0.05, **P<0.01, ***P<0.001 by unpaired t-test.
Furthermore, eVEGF-38 and eVEGF-53 chimeric polypeptides and VEGF189 expression enhanced axons and neurites formation of primary mouse RGCs (FIGS. 5A-C, FIG. 6, and FIGS. 7A-B), supported synaptogenesis and likely neuronal function (FIG. 8), which are consistent with the role of VEGF in promoting neurogenesis and neuronal function in vitro and in vivo. […] Together, the data support overexpression of eVEGF-38, eVEGF-53 and the natural VEGF189 isoform in RGC promotes cell-autonomous RGC survival, axon growth and regeneration, and neuronal function, and is useful and a therapeutic agent for treatment of glaucoma. The chimeric polypeptides can be used therapeutically via a gene therapy approach (AAV) for eVEGF-38, eVEGF-53 and VEGF189. Activity is tested in animal models of glaucoma and optic nerve injury/regeneration.

In a further series the test system is RGC. Briefly: Intracellular [Ca2+] in RGC by fura2/AM calcium imaging. The class given is cell-based, mouse. Conditions: upon carbachol and NMDA stimulation; compared to control. The protocol:
as §1

B1: VEGF189: natural VEGF189 isoform with strong heparin-binding domain, constructed with a myc-tag (SEQ ID NO: 3), tested for comparison (protein)
chain: MNFLLSWVHWSLALLLYLHHAKWSQAAPMAEGGGQNHHEVVKFMDVYQRSYCHPIETLVDIFQEYPDEIEYIFKPSCVPLMRCGGCCNDEGLECVPTEESNITMQIMRIKPHQGQHIGEMSFLQHNKCECRPKKDRARQEKKSVRGKGKGQKRKRKKSRYKSWSVPCGPCSERRKHLFVQDPQTCKCSCKNTDSRCKARQLELNERTCRCDKPRRKLGNGNGEQKLISEEDLGN
modifications: myc tag
As to B1, the pro-inflammatory markers entry in series [1] was “increased”. The “increased RGC survival upon H2O2 treatment compared to control” value in the series on primary mouse RGC [2] is 18%. Moreover, in the series with primary mouse RGC [3], the “average axon length per RGC” value is listed as “significantly increases”, the “average number of neurites per RGC” value is reported as “significantly increases” and the “percentage of RGC with axons longer than 3× cell body length” value (“percentage of RGC” for short) is on record as “significantly increases”. The same molecule came in with an RGC survival in the series with primary mouse RGC [4] of 50%. Moreover, the “VEGFR2 activation by levels of VEGFR2 phosphorylation (p-VEGFR2)” value (“VEGFR2 activation by levels … (p-VEGFR2)” below) in the series with VEGFR2 is “can sustain VEGFR2 activation in a cell autonomous fashion”. Moreover, in the series on primary RGC (RGC), the synapse formation entry is reported as “promoted synapse formation”. Also, the “synaptic vesicle marker synaptophysin in axons and neurites” value (“synaptic vesicle marker synaptophysin” below) in the series with primary RGC is reported as “also express synaptic vesicle marker synaptophysin”.

B2: eVEGF-38: engineered covalently linked dimer of VEGF121 isoform with a 38 amino acid glycine-rich linker connected to a GPI anchor (SEQ ID NO: 1) (protein)
chain: MNFLLSWVHWSLALLLYLHHAKWSQAAPMAEGGGQNHHEVVKFMDVYQRSYCHPIETLVDIFQEYPDEIEYIFKPSCVPLMRCGGCCNDEGLECVPTEESNITMQIMRIKPHQGQHIGEMSFLQHNKCECRPKKDRARQEKCDKPRRGGSSGGSSGGSGGGTGGGSGAPMAEGGGQNHHEVVKFMDVYQRSYCHPIETLVDIFQEYPDEIEYIFKPSCVPLMRCGGCCNDEGLECVPTEESNITMQIMRIKPHQGQHIGEMSFLQHNKCECRPKKDRARQEKCDKPRRGNGNGEQKLISEEDLKLAAAGNGGNGNGNGDGNGALCNGAGFATPVTLALVPALLATFWSLL
Take B2: in the series with primary mouse RGC [5], the “genes involved in apoptosis and cell death (bax/bcl2 ratio) and inhibition of axon formation (Tsc1)” value is “down-regulation”; the “genes involved in axon growth (KLF7), neurogenesis (Microtubule-associated protein 1B) and synaptic vesicle trafficking (vesicle-associated membrane protein 3)” value is listed as “up-regulation”. Also, the “increased RGC survival upon H2O2 treatment compared to control” value in the series on primary mouse RGC [2] is given as 10%. In the series on primary mouse RGC [3], the “average number of branch points of neurite per RGC” value is listed as “significantly increase”, the “average axon length per RGC” value is listed as “significantly increases”, the “average number of neurites per RGC” value is reported as “significantly increases” and the “percentage of RGC” value was “significantly increases”. Also, in the series on primary mouse RGC [3] (some of the overexpressing primary RGC, correlative fluorescence and electron microscopy), the “length of extra long axons” value is above 1400 μm. The molecule further displayed an RGC survival with primary mouse RGC [4] of 45%. In the series with VEGFR2, the “VEGFR2 activation by levels … (p-VEGFR2)” value is “can sustain VEGFR2 activation in a cell autonomous fashion”. Also, the “synaptic vesicle marker synaptophysin” value in the series with primary RGC is “also express synaptic vesicle marker synaptophysin”. Moreover, in the series with RGC, the “intracellular [Ca2+]” value is listed as “decreased”.

B3: eVEGF-53: engineered covalently linked dimer of VEGF121 isoform with a 53 amino acid glycine-rich linker connected to a GPI anchor (SEQ ID NO: 2) (protein)
chain: MNFLLSWVHWSLALLLYLHHAKWSQAAPMAEGGGQNHHEVVKFMDVYQRSYCHPIETLVDIFQEYPDEIEYIFKPSCVPLMRCGGCCNDEGLECVPTEESNITMQIMRIKPHQGQHIGEMSFLQHNKCECRPKKDRARQEKCDKPRRGGSSGGSSGGSGGGTGGGSGAPMAEGGGQNHHEVVKFMDVYQRSYCHPIETLVDIFQEYPDEIEYIFKPSCVPLMRCGGCCNDEGLECVPTEESNITMQIMRIKPHQGQHIGEMSFLQHNKCECRPKKDRARQEKCDKPRRGNGNGNGNGNGNGNEQKLISEEDLKLAAAGNGNGNGNGNGNGNGDGNGGALCNGAGFATPVTLALVPALLATFWSLL
Turning to B3, the “increased RGC survival upon H2O2 treatment compared to control” value in the series on primary mouse RGC [2] came out at 15%. For the same molecule, in the series on primary mouse RGC [3], the “average number of branch points of neurite per RGC” value is on record as “significantly increase”, the “average axon length per RGC” value is listed as “significantly increases”, the “average number of neurites per RGC” value is recorded as “significantly increases” and the “percentage of RGC” value was “significantly increases”. Besides, the RGC survival in the series on primary mouse RGC [4] is 48%. For the same molecule, in the series with VEGFR2, the “VEGFR2 activation by levels … (p-VEGFR2)” value is recorded as “can sustain VEGFR2 activation in a cell autonomous fashion”. In the series with primary RGC, the “synaptic vesicle marker synaptophysin” value is given as “also express synaptic vesicle marker synaptophysin”. Also, in the series with RGC, the “intracellular [Ca2+]” value is reported as “decreased”.
